This note sets out measurements from paper PMC9237115, “Hsp multichaperone complex buffers pathologically modified Tau” (Nature Communications, 2022).

This experiment addresses T1, Full-length human Tau (MAPT) (human, UniProt P10636-8 1-441).
T1 construct: Tau (MAPT), human, full length; 15N-labelled for the HSQC NMR experiments; also called unmodified Tau; source: E. coli BL21 (DE3), pNG2 vector, purified (boiling, ammonium sulfate, cation exchange, gel filtration)
Nature of the experiment: NMR titration; 2D 1H-15N HSQC of 24 µM 15N-labelled Tau (or PTau^Cdk2), 5 °C, 25 mM HEPES pH 7.4/100 mM KCl/5 mM MgCl2/1 mM TCEP; chaperones added. As to conditions: both partners purified.

T1 sequence (P10636 other isoform, or with tags, fused parts or gaps): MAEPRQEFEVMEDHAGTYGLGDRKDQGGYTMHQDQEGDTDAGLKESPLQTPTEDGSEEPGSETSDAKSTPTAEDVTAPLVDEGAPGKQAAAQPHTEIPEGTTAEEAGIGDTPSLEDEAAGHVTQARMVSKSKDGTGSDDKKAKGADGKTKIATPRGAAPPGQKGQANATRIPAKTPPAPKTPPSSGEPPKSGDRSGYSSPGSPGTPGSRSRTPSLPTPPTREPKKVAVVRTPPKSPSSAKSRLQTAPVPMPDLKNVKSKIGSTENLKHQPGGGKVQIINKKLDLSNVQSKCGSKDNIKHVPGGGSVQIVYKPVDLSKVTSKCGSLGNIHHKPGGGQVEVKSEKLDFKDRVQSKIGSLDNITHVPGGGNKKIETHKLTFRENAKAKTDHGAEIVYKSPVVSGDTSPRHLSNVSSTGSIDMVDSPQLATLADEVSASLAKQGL

B1: p23 (PTGES3) (natural protein, human, UniProt Q15185 1-160, looked up)
chain: MQPASAKWYDRRDYVFIEFCVEDSKDVNVNFEKSKLTFSCLGGSDNFKHLNEIDLFHCIDPNDSKHKRTDRSILCCLRKGESGQSWPRLTKERAKLNWLSVDFNNWKDWEDDSDEDMSNFDRFSEMMNNMGGDEDVDLPEVDGADDDSQDSDDEKMPDLE
notes: p23 (PTGES3), human, full-length DNA in pET28a; source: E. coli Rosetta 2 (DE3), purified (Ni-NTA, thrombin cleavage, SEC); not shown: His6, N-terminal, cleaved
Regarding B1, the binding result is given as “binds”.
